In the domain aggregation screens of Martell et al. (2025):

Experiment: soluble fraction after stress (log2 fold change); higher = more stays soluble; pooled small domains, quantitative proteomics
Conditions: stress: 50 degC
How it was run: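 After stress at 50°C, the amount of each protein still soluble was measured. This was done on pooled custom libraries of small protein domains, using high-throughput quantitative proteomics. The figure given is a base-two log fold change and stands for aggregation propensity, with higher values meaning more protein stays in solution.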

Sequence	soluble fraction (log2)
HMDYEVPEELEEKFSENPQFKEAFDNLTPGRQHQYIYHISQAKRSQTRINRIEKYYEHILNGKGMQD	0.0659
HMVMTTVPEVLGMDISKAASLLTGKNLDYDYDLVESDKPKDQVIEQDVVKGTEVPEGTVIHLKVSKGPA	0.228
HMKLTKPKLIQLIHIAKSKLNMDELSYRVLLDNLTGKTSTTKMTVGELLKVYESMKDKGFKPQV	-0.166
HMEDEVSSSAAYQALLEKGVSKTLARSWVIDYGEAYVLDKVDLTTSQAARGKIKSSTAGFLKAAIEEDFHN	-0.244
HMKYKWLAGQLRRELLENGGKKGYKLPTELELARRYQLSRQTVRRALQLLEEEGLILRRQGSGAYATGKPP	-0.316
HMETKKEIIEAINELEEKYRNAIYLTSIEKLSYEETSKILGQSLSNTKNLIHRGKQQLRKILIKK	-0.214
HMRKMNDAVFYVEMSRPKRGYYTATYKLITRNPNSLPEHEITRRFFQMLEETIRKNPPYYLWTH	-0.328
HMRNAAGGIYGWMTLHQVAETVKLTEEEVIAITNLPAGIPRDVSLKNIEGVNDEELRALLEAYLEKQ	-0.151
HMDRSAQVLFLEHARSRLPQRIQWAEELAELLSIGIDSAYRRIRGETALTFNEAVSVSRKYDISLDYLFK	-3.62
HMQEAGLITQRIREMREKENWTQEYMAEQLGMSENGYAKIERGESNLSLKRLQQIADIFEVESAELLK	0.0493
HMGQEEKDIFLKLINISGIGPKLALNILSGIEASELEEAVRNTNVTRLSMVPGIGQKTALRIIMELSDKLE	-0.432
HMAVDVNKATAAELDSIKGIGPAISAKILEEKKKGGNFKDWNDLVTRVSGVGEANAAKFSSEGLTVGGAS	0.0629
HMESRETGLPVVIISDGRILQDNLKRRGLDLSWLDKQLAEHGYPDFRDVFLLTVDEAGGVYFVPRE	0.333
HMPRVSIEKIKKVVELLKHNPDYTYSKIGNIVGIGRKTVSGINNGKLYTDLVEELGINEFPI	-0.292
HMDTITMAGERYAVSDLEKVSGDIFEKAFGFEIDPKTADAKDVLPTMPKSDVDLFKKLSGIKP	0.19
HMNVDALIGTKGIVVQPIRPFAVGQVKVNGQVWSAVGKTPETDIEQGREVKVHAIEGVKLVVTPT	0.251
HMGPRVSAGPGRHRVQPGDTLDDIAARYRVSSRDLMLVNGLRNANHVEAGQTLKLPSNAVIA	0.28
HMEYKNYYDSPVGRLELLSDGVSLTAVLFENQQGDGTREENTSLAIFKEATQWLDAYFKGDNPEITIPL	0.0756
HMAALTADEAKQIALKHAGVAESDVQRLKVEQDRDDGRLLYEVEWDVGRTEYSYEIDANTGDILNYEKDV	0.254
HMPAASDALAGELAQIARLDIAKLLAGDLSEADWSRITSATVQLSERHPDASDELTALVERIDTAYSARAT	0.0455
HMAVPAALVQAWLELSRRMVAGTQDVGERFAEEARKMHYGETEDRGIRGQATLTEVRDLLDEGIEVLPLLL	-0.392
HMVIGKHSGSHTLVNDLAKRGITLDKEESATLLEMVRKAAVGLHRSISSDELYGLYKDMKSGQDPFEDS	0.0935
HMNQAIIVPDVKGLPLEEATTFFENNDLRYTVIDSVYTKDVPPGAIYEMVPGAGSKVKEGRIIFVTLNAR	-0.314
HMRILGIDPGTRITGYGIIDIEGNRLRHVDNGIIKTRSSDALPLRLKVIYDGLTAVLKQYSPQAV	0.0465
HMLLPANLTKSQRNIAERVARGQSNLEIAADLNITERTVKAHLTSIYEKTKTGNRLNLALLINLG	-0.442

Sequence	soluble fraction (log2)
HMEKDRDKRIRKRVLTALKRNDKKMTDKAFALLTSRIRDESILDQEVLKLIGYVGDRTTIDSKDINIVVAE	0.0525
HMYPIYDYISNMYLGKHLNAGMSLEEARGIMDEMLEKLLFDVPEEYHIDRDHFYEYLKKYYTERFSA	-1.81
HMKEQLITVYVSGAVARPGLYELPAGIRAQEAVEAAGGFTEAANHEKVNLAKKLKDGSQVNVPALK	-0.0032
HMGLYPYSGTPADNQEANERRIFDIYSTHLERIFSDFSGATLRTKRLVLRLMQELVHSDPVRMAGILDEL	0.00204
HMEHETTQLELNAPGQRLDAALALALPDTSRAQIQQWIKQGLVTDQAGTALLQASLKLKSPLNVVLQRPI	0.178
HMWNLPDPVVRPEGNVTVYENFKNTVEVLNREADLVLKFLQNEFGTSANIDDTGRARLTGSFSTDRVSSVI	-0.214
HMPLNRFLNLPHEDKERVLLIAKKQFSTHGYDAMSLNLLLKELDISKGQFYYWFEDKADLFFTVL	0.0032
HMGFKLQRYTTFVVERLKKYQDTPAAQMHDLLKEHYPDFPAVSPKTVYNYVMKIRQEHGLPAV	-3.63
HMIFELDSDRASAGNTIGKLVSKWNNTEVASVQFVSGDDTSNKDNASIYLNTRSGGSGNLVRLRITK	0.168
HMISAEPVGEDLFKVAFPFLGGSTVFEKTIEQFIEEHPSKRIDHIYTVPNPLRLKKADALIFYIITEEK	-1.02
HMTFAPTAIPSLTRPMEELMSWSFTPNEAFILSRINGLWDVRSIAKISPFPEGEVLRVFEKLHDGGLIRW	-2.92
HMTTAGTAIVQTGNSGKLNLREQAYANAGILGRYSNGTAVTVLQKGAAWSYVEVKGQKGYMMSKFLKFTS	-0.0681
HMSGVIVPDIYNKTLAEAVASLEGEGFSTEKKEGYSDTVPKGNVMSQKPEAGTSAERGSTVTITISQGPQ	-0.0107
HMITAEQENILFEKASDDISNNIINKGIWTKAYSQAGGDESKQKAIYIDLLVNYYKMLIKAGEEFEDI	-1.39
HMLSLGIMEADMLKTGKHTISGISKATPEQRQKIDSDIEELKKKYPEKNITSKVENDNLIVESGVTAP	0.278
HMLNSISIKTNKKIDFLEKNEHLVNFVYEKETMEHIYNLSYENKKDLQELQNKLSDIEGIIKINTDL	0.133
HMGELGPGSRGQAVRALQERLMALGFPLARFGADGIFGRETTGALRAFQHVAGLSPTGLGDHETLKWLGII	-0.935
HMEPEAKIDFILKAAQKRLGLYGYEKTTMQEIAADINMSKAALYYYFPDKESLFKAVVENEQEEYFH	-1.63
HMGNWEQQLRSWADGELATGKQDILTTAVPAFERALIETALSHTNGRKRDAAELLGWGRNTLTRKLKELGM	-0.371
HMDRNIVYSDFIRSVNQGQVSEVLVQGDNIRGRYLNGKVFQTFAPKDPSLISTLRNKGVRISAEPA	0.113
HMDFPYISGIEIAAIKNREFIRIETDKAQEIAIALDKSGIPFSARFSDAEMVLTYDGSYKEQVEDIIAKA	-0.0417
HMPTTTFENLPDAKKKTIIAALLKEFSQSPLSKAQVAPIVKESQIARGAFYKYFVDLTDAYTYLYRQ	-0.204
HMEVENAQLLARLTPQEHRVFERVVAGLSNREIGSEMDISIKTVEVHRARVMRKLEANSVAELVRFHIHN	-2.25
HMILNDRSELLDVVKRVIAANPASVADYRKGKKKVLGFLVGQAMKETKGQADPRILNELFLQELGEN	0.0223
HMDRYAVRAEELAAALAQYHRHVGVYPENLEDLIAPTGPRGYRGPYLSELPTNPSTSKPDWGYDPATGRVS	0.198

Sequence	soluble fraction (log2)
HMRAGHDFEALKHIESSLDKHLTDEGIKIKSEKRGAIVARWYQSHVEGREVTDDDVHTWIELFF	-3.5
HMQGWREWDYSADLYINARVGGKIEPTENSPISRVYELDEPVSVVAFTSTRYFKLSSGDYIFAEYLSAQKV	-1.2
HMYAPKIETIQVPQDKIREVIGTGGKVIREIVETTGAKIDIGDTGLIKVASSDGEAIRAALDWINSIVAE	0.117
HMKLNKRQYAYQVIRSRILDGTYVPGQRIIIDQIAKEVNSSHIPVREAIHQLESEQLIDYEPNIGAIVKG	0.285
HMSAEVMLRRLIDENDPSSENARYILAVMLERKKILAPVDVKNEKKSKMLFYEHQKTGEAFIVRDP	-0.267
HMKQLNKRQDDILSLAEKEGYVSVENLAKTFTVSQQTIRRDINYLSDHEFLVRTHGGAFYSSG	0.00837
HMDTIYPFNPNFIDDYKGYVLGLNTNEIDRLLKYRSKGNWINSAEDFKKVTGIDDALLNKLSKSFKFPDWL	-1.44
HMTYIQSNLKFLRNKMNISQEELAKRLFVTHQTVSNHENGKSQPNFEMIEKYASFFNVPFEDLIHKDLSL	-0.0206
HMVMAELRISVDRLQIGNYIKLPLSWRDHPFLLSSFMIKKEEQIQLIRQLRLKHVFIIPEKSDAPPKPA	-4.15
HMKKNNTTPIPKTLNYVNIKGLSNEAVERLNKHKPSTLGQASRLEGITPAATSLISIAIKKNQLLEKAES	0.251
HMPLTKKLETLFSLFPKYEKELKKKGVTRIHVWANYKEEYPDGIGRSQFIHYYSFWKKQVSP	-0.118
HMILKQTHIVQELTGPIRLQEYGVGIFQQISTKSALKKALKKNQITVDGVVGSTATFIKGGEIIIYHVTE	-2.75
HMATLAVPNLMRLSQGEAMALIRLSGLSIGNVSIDSSMGSPRVIRQEPQASGGMLVLTQGDQVHLWLEGP	-3.2
HMRMYDVNEYSDEELHRILDLSSPTDSELEARILQMIQKYKYTNGGDNEKMAVFFENIYHHFFD	-1.5
HMNILDPTVMKNILDKNHEEFIAIYESAPLGQKTIINSMVFDKRLNGENVDANILMYLQNKTNIDYINIEP	-0.167
HMAQVSDTGELEGVVDGVLAANAKSVADFQAGKENAFQYLIGQVMKETKGKANPEVVATLLRTKLS	-0.382
HMSEYLDIHMAMEKLNRKEQLFVHLRFYEGLTQSEIAQRLFTSQVQISRLEKSVLEKMRQILSK	-1.34
HMKKVTMQDIANILNISRVTVWKVLNNQPGVSKQLRDQILLTAKETGYLKPGQEAEAYLEENNIYFEG	0.176
HMAMMTKQRLIQLIHIARNDLQMDEDTYRQMLQGLTGKASTKGMDTPQLNRVLESMKKKGFRIK	-0.447
HMKYLREEDYLPIGSIIRLDDRNFRVDHVNFMFKSVSLQDMDLTNSGQPIFRSESLPHIRELYEQQQNELV	-1.19
HMEFDSLINYEVKKKETLFSISKKFKIEINDLLSFNTELKNNKLKKNSIIIIPLKKKIVESQNFEKQKIID	-1.37
HMKNNLKGSPIIIAGGYGVGSKENFNLLFDLAKVLNAEVGASRAAVDAGFVEHDRQIGQTGVTVRP	0.0735
HMDVTDRLARRLQGLRSAQGLSLDALAARSGVSRSNISLIERGQSSPTATVLDKLSAALGVTLAALFEEP	-0.474
HMVDLANIDPIASSIKLNGAEADASFNTLEDRRVSVSGSFEENKNYTMEYTFKDYAGGSVTGTLDFKTLA	0.137
HMTPIELIEKTIELIENERKVQKLQQKELALKADIPFPTYKDFIYKKRASLENILKLFIALRLF	-0.342
